# B1: LDLR-PPRE(WT) biotin probe (dsDNA)
# DNA 1: TCTCTGTGGCTTAGGGGTTCAAGTTCAACTGTGAAAGCCC
# DNA 2: GGGCTTTCACAGTTGAACTTGAACCCCTAAGCCACAGAGA
# B2: LDLR-PPRE(WT) unlabeled competitor (dsDNA)
# DNA 1: TCTCTGTGGCTTAGGGGTTCAAGTTCAACTGTGAAAGCCC
# DNA 2: GGGCTTTCACAGTTGAACTTGAACCCCTAAGCCACAGAGA
# Assays:
# PPARδ;RXRα [1] = target: T1, PPARδ;RXRα (Homo sapiens;Homo sapiens?, UniProt Q03181;P19793 1-441;1-462, |); experiment: EMSA
# PPARδ;RXRα [2] = target: T1, PPARδ;RXRα; experiment: competition
# T1 sequence (Q03181 whole entry, stated change not applied, chain 1 of 2): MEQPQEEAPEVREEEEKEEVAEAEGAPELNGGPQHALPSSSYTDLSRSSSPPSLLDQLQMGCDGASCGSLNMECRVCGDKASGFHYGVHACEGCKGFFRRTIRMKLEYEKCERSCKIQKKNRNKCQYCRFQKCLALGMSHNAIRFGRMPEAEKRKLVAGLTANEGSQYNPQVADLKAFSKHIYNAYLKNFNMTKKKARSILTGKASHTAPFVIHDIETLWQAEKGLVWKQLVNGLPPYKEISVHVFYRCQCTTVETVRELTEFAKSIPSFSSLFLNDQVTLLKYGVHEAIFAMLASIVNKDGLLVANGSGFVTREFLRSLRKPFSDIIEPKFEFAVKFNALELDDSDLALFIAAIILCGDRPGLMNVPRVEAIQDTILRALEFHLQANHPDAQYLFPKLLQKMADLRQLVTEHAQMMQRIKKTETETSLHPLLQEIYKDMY
# T1 sequence (P19793 whole entry, stated change not applied, chain 2 of 2): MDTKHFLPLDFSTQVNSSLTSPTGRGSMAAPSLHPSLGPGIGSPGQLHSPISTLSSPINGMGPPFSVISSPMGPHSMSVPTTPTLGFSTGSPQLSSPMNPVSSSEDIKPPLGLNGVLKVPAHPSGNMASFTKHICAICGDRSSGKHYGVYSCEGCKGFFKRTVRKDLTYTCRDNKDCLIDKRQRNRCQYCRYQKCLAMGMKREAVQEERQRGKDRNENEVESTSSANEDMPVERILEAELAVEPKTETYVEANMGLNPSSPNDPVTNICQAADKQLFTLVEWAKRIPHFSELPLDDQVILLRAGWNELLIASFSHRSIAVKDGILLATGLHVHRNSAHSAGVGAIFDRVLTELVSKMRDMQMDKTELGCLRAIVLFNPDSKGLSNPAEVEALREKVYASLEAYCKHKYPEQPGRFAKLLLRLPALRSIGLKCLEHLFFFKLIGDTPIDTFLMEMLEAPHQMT
Binder,binding result (PPARδ;RXRα [1]),binding result (PPARδ;RXRα [2])
B1,binds,–
B2,–,binds
